T1: Soluble human α-Klotho ectodomain (αKlotho^ecto) (human, UniProt Q9UEF7 34-981)
T1 construct: also called wild-type αKlotho^ecto; soluble αKlotho
T1 sequence: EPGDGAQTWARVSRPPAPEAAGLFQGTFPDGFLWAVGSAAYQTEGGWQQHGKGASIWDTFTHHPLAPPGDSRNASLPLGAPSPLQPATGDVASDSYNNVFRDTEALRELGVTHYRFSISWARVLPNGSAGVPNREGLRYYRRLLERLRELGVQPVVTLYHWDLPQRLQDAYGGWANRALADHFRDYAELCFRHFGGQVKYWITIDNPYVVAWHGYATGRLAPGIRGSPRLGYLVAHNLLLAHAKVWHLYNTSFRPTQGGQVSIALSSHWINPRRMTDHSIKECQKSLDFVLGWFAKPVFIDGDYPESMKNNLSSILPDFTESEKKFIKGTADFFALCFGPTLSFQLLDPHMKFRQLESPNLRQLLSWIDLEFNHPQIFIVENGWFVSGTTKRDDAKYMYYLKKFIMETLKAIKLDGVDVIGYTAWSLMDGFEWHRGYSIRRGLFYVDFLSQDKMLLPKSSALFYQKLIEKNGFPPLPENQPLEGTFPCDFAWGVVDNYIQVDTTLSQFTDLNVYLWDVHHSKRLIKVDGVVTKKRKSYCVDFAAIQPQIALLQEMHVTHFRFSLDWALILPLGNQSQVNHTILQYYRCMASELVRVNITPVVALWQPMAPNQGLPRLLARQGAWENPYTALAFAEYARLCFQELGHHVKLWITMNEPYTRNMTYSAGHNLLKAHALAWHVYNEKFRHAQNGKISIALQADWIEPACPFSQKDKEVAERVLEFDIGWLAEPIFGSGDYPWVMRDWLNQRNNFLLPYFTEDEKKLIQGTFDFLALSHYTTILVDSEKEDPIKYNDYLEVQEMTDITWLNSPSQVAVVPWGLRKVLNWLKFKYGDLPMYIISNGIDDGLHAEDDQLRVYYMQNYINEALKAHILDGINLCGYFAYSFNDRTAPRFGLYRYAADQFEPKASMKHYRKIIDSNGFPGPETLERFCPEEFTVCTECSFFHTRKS

T2: αKlotho^ecto/ΔRBA (soluble αKlotho ectodomain lacking L544 to T565 of the KL2 β1α1 loop) (human, UniProt Q9UEF7 34-981)
T2 construct: the mature protein is E34 to S959; Expressed and purified like the wild type (pEF1α/myc-His A); also called α-Klotho^ecto/deltaRBA; αKlotho^ecto/ΔRBA mutant
T2 sequence: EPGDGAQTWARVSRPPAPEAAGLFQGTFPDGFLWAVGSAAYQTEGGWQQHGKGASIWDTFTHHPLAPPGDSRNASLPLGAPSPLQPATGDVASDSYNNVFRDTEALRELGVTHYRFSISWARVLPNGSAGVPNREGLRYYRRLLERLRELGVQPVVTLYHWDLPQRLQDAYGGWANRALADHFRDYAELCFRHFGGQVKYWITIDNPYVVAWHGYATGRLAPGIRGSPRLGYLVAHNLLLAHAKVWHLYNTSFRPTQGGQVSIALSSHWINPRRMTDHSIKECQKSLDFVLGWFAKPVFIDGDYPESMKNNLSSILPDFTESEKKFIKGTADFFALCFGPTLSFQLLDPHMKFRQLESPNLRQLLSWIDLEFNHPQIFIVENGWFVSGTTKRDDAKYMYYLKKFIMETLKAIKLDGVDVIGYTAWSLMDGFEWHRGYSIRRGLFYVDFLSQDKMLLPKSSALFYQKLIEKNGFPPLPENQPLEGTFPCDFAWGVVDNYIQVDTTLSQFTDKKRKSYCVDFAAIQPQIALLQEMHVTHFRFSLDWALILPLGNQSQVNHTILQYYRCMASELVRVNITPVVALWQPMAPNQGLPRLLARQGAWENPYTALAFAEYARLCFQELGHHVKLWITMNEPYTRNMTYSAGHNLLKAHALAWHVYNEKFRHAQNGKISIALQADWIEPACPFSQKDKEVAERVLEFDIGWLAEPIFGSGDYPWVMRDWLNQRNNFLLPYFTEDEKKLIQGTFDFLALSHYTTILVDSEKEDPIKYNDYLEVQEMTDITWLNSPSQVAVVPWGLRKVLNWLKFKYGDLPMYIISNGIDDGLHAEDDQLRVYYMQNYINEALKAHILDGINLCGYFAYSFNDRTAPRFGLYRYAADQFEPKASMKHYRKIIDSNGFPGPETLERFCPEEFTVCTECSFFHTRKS

B1: FGF23^ΔSRBS (FGF23^WT carrying M149A/N150A/P151A) (ligand)
chain: YPNASPLLGSSWGGLIHLYTATARNSYHLQIHKNGHVDGAPHQTIYSALMIRSEDAGFVVITGVMSRRYLCMDFRGNIFGSHYFDPENCRFQHQTLENGYDVYHSPQYHFLVSLGRAKRAFLPGAAAPPYSQFLSRRNEIPLIHFNTPIPRQHTQSAEDDSERDPLNVLKPRARMTPAPAS
B2: FGFR1c^ecto (human FGFR1c ligand-binding domain, D2, D3 and D2-D3 linker) (receptor)
chain: DNTKPNRMPVAPYWTSPEKMEKKLHAVPAAKTVKFKCPSSGTPNPTLRWLKNGKEFKPDHRIGGYKVRYATWSIIMDSVVPSDKGNYTCIVENEYGSINHTYQLDVVERSPHRPILQAGLPANKTVALGSNVEFMCKVYSDPQPHIQWLKHIEVNGSKIGPDNLPYVQILKTAGVNTTDKEMEVLHLRNVSFEDAGEYTCLAGNSIGLSHHSAWLTVLEALEER

Assays:
[1] = biological target: T1, Soluble human α-Klotho ectodomain …; assay: SEC-MALS, 1:1:1 mixture with FGFR1c^ecto and αKlotho^ecto
Experimental: (§1) A Superdex 200 10/300 GL column (GE Healthcare, USA) was placed in-line between the HPLC pump (Waters 1525) and the HPLC UV (Waters 2998 Photodiode Array), laser light scattering, and refractive index detectors. Light scattering and refractive index detectors were calibrated following the manufacturer's guidelines. The refractive index increment (dn/dc) in which n is the refractive index and c is the concentration of the mixture of DDM and CHS in 20 mM Tris-HCl pH 8.0 buffer containing 300 mM NaCl, was determined offline using an Optilab T-rEX refractive index detector. Monomeric bovine serum albumin (#23210, Thermo Scientific, USA) was used as part of routine data quality control.
(§2) 60 ml or more of 25 mM HEPES pH 7.5 buffer containing 150 mM NaCl were passed through the system at a flow rate of 0.5 mL/min to equilibrate the Superdex 200 10/300 GL column and establish stable baselines for light scattering and refractive index detectors. Purified αKlotho^ecto, FGER1c^ecto (wild type or mutant), and FGF23 (wild type or mutant) proteins were mixed at a molar ratio of 1:1:1 and concentrated to 12.5 μM. 50 μl of protein samples with a molar equivalent of a heparin hexasaccharide (#H006, Iduron, Manchester, U.K.) were injected onto the gel filtration column, and the column eluent was continuously monitored for 280 nm absorbance, laser light scattering, and refractive index. […]

[2] = biological target: B2; assay: SEC-MALS, 1:1:1 ternary complex with FGFR1c^ecto and αKlotho^ecto
Experimental: as §1, §2

[3] = biological target: T1, Soluble human α-Klotho ectodomain …; assay: SEC-MALS of a 1:1 mixture, UV280 absorbance and molecular weight against retention time [panel A]
[4] = biological target: T2, αKlotho^ecto/ΔRBA (soluble αKlotho …); assay: as above

Binder | binding result [1] | binding result [2] | binding result [3] | binding result [4]
B1 | binds | binds | – | –
B2 | – | – | binds | no binding

— patent US20210054355A1 (NEW YORK UNIVERSITY, published 2021)
